Assay results published in publication PMC6128628, “Impaired hepatic amyloid-beta degradation in Alzheimer’s disease” (PLoS ONE, 2018).

Test: Degradation of fluorescein-labeled Aβ spiked into human liver homogenates (ELISA)
Type: in vitro ADME
Conditions: fluorescein-labeled peptide from DMSO stock diluted to 0.4 μg/ml, 5 μl added, 37°C, stopped on ice with protease inhibitor cocktail
Procedure: Frozen liver (~500 mg) was ground into a powder in liquid nitrogen with a mortar and pestle then transferred to 8 ml sucrose lysis buffer (SLB: 20 mM HEPES, 1.5 mM magnesium chloride, 10 mM potassium chloride, 40 mM sucrose, 1 mM EDTA, 2% glycerol, 0.5% sodium deoxycholate, 1% Tergitol, pH 7.9) at 4°C. The tissue was then homogenized using an Omni TH tissue grinder (Kennesaw, GA) at 4°C. The homogenates were centrifuged at 15,000 x g in a Type 50.4 Ti rotor (Beckman Coulter, Brea, CA) for 20 min at 4°C and the supernatant was collected. Total protein was determined with Pierce’s Micro BCA protein assay kit (Thermo Fisher Scientific, Waltham, MA).
Lyophilized fluorescein-labeled Aβ40 and Aβ42 peptides (FAβ, rPeptide, Bogart, GA) were reconstituted in DMSO to 1 mg/ml and stored at 4°C [22]. For degradation experiments, the stock peptides were diluted to 0.4 μg/ml (1:2500) in sucrose lysis buffer (SLB), 5 μl of either FAβ40 or FAβ42 was added to the reaction mixtures and samples were incubated at 37°C for 1 h or 2 h (for ELISA and Western experiments). In addition, two 0 h incubations were included: one liver homogenate with 5 μl of FAβ as well as a negative control sample without FAβ. Reactions were terminated by placing homogenates on ice and by adding SLB with complete protease inhibitor cocktail (PIC, Roche, Mannheim, Germany). Reactions used for Western blots were stopped by 2XLDS sample buffer (Invitrogen) containing 100 mM dithiothreitol.
All 4 sample sets were analyzed in triplicate with Aβ40 and Aβ42 ELISAs (Invitrogen; catalog # KHB3481 and KHB3441 following the manufacturer’s instructions. Similar sets of samples were analyzed for FAβ by Western blot (as described below) with an anti-fluorescein antibody (Table 2) which binds to both to both free and bound fluorescein.

| Substance | Aβ degraded within an hour, AD group (postmortem human liver homogenate from Alzheimer's disease subjects (n = 8) in sucrose lysis buffer pH 7.9, 1 h, Aβ40 ELISA in triplicate, p<0.05 vs ND) | Aβ degraded within an hour, ND group (postmortem human liver homogenate from non-demented controls (n = 8) in sucrose lysis buffer pH 7.9, 1 h, Aβ40 ELISA in triplicate, p<0.05 vs AD) | Aβ degraded within 2 hours, AD group (postmortem human liver homogenate from Alzheimer's disease subjects (n = 8) in sucrose lysis buffer pH 7.9, 2 h, Aβ42 ELISA in triplicate, p = 0.07 vs ND) | Aβ degraded within 2 hours, ND homogenates (postmortem human liver homogenate from non-demented controls (n = 8) in sucrose lysis buffer pH 7.9, 2 h, Aβ42 ELISA in triplicate, p = 0.07 vs AD) |
| --- | --- | --- | --- | --- |
| Aβ40: synthetic fluorescein-labeled amyloid beta 40 peptide (rPeptide), spiked into liver homogenates | 23% | Thirty-four |  |  |
| Aβ42: synthetic fluorescein-labeled amyloid beta 42 peptide (rPeptide), spiked into liver homogenates |  |  | 80% | 94% |
